Experiments:
[1] = molecular target: trk A (autophosphorylation assay of Example 5); assay: cell-based or functional assay
[2] = molecular target: trk A on trk A-overexpressing PC12 cells; assay: cell-based or functional assay
p75NTR on A875 cells = p75NTR on A875 cells (UniProt P08138); assay: whole-cell competition against 1 nM 125I-NGF on cells expressing only p75 (A875 cells)
[3] = molecular target: p75 on vascular smooth muscle cell line (p75Ts-Tag-SMC); assay: cell-based or functional assay
TrkA on 293 cells = assay: whole-cell competition against 1 nM 125I-NGF on 293 cells expressing only trk A
TrkA on 293 cells, sequence (P04629 33-796): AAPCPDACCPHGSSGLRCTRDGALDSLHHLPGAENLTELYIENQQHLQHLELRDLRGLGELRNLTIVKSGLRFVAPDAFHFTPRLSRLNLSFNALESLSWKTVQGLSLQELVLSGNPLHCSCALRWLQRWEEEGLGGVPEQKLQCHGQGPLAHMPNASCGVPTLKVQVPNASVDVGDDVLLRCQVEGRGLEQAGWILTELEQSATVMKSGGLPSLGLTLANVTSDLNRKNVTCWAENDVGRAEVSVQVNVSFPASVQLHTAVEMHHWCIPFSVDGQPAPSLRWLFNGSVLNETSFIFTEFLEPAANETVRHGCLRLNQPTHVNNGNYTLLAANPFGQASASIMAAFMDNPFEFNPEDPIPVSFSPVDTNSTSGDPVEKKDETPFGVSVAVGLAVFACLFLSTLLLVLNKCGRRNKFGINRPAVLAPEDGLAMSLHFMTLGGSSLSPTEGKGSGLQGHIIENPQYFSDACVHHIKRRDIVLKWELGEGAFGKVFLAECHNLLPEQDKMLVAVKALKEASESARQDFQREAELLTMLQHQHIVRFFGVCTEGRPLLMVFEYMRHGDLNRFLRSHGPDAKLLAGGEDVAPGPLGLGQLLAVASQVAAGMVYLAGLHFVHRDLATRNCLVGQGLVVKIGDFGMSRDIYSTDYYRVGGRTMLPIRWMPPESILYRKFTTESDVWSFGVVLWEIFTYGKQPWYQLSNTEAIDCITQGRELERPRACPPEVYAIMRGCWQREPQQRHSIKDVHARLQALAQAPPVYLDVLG

[4] = system: T1, rat BDNF secreted by adenovirus-infected 293T or endothelial cells (proforms of 30 kDa and 28 kDa)
T1 sequence: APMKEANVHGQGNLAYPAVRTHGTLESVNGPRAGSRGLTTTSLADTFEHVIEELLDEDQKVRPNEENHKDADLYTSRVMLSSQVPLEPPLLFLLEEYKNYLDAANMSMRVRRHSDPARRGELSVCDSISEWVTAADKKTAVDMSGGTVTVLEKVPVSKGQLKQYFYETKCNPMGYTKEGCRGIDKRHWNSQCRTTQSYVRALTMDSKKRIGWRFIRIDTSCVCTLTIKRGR

[5] = system: His-tagged cleavage resistant pro-NGF (point mutant, K-R cleavage site at 120,121 mutated to A-A)

commercial mature NGF (Enzo Products for Science, Farmingdale, N.Y.) (ligand), sequence (P01139 122-241): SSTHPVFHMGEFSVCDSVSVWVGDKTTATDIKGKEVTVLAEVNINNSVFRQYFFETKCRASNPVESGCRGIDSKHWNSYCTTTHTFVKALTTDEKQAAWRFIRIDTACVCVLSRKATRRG
plasmin, sequence (P00747 20-580): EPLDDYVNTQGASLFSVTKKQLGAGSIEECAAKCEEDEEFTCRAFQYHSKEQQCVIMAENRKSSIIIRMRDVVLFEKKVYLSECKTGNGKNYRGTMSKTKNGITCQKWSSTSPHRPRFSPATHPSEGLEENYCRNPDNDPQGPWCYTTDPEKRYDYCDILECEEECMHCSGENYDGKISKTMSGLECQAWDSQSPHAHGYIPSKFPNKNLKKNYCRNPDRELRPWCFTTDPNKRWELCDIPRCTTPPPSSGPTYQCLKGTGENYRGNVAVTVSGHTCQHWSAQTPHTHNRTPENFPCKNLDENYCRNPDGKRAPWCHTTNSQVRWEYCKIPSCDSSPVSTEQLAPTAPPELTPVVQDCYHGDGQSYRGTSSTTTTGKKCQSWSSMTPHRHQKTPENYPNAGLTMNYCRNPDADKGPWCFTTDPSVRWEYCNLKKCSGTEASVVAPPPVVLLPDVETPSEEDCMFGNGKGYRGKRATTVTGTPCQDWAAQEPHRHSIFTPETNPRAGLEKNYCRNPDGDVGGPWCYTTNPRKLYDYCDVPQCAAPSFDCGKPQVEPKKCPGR
plasmin, sequence (P00747 581-810): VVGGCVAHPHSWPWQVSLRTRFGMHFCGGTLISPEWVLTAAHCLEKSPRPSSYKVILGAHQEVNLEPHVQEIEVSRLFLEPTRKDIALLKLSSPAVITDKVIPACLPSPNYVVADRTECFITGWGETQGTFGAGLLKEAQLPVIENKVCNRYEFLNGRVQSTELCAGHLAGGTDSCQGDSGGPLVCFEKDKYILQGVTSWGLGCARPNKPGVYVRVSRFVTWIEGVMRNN
commercial mature NGF (Enzo Products for Science, Farmingdale, N.Y.) (ligand; other documents disagree on this pair), sequence (P01139 122-241): as the sequence (P01139 122-241) above
p75NTR on A875 cells, sequence (P08138 29-427): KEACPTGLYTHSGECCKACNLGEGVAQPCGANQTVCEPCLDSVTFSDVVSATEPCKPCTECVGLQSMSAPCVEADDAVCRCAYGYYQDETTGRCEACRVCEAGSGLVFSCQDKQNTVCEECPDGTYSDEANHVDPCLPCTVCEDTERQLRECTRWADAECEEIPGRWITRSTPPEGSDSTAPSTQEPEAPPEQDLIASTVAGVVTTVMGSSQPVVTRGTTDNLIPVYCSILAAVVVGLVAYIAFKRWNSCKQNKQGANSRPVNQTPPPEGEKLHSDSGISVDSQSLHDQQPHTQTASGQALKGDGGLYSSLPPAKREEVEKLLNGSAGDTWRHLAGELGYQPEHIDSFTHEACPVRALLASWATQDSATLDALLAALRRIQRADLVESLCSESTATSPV

His-tagged native NGF, completely processed to the mature form of 13.5 kDa (from UniProt P01139 122-241) (ligand)
trk A autophosphorylation [1]: 0.2 nM | PC12 cell neuritogenesis [2]: 0.1 nM

commercial mature NGF (Enzo Products for Science, Farmingdale, N.Y.) (ligand)
IC50 (p75NTR on A875 cells): 1 nM | TUNEL positive cells at 18 h (% TUNEL positive cells at 2 nM) [3]: 20 | trk A autophosphorylation [1]: 0.2 nM | PC12 cell neuritogenesis [2]: 0.1 nM

commercial mature NGF (Enzo Products for Science, Farmingdale, N.Y.) (ligand; other documents disagree on this pair)
IC50 (TrkA on 293 cells): 1.2 nM

plasmin
proteolytic cleavage in endothelial media, Western blot [4]: In endothelial media, only plasmin and MMP-7 appeared to cleave the large proform | proteolytic cleavage, Western blot [5]: Pro-NGF was cleaved by plasmin to a 13 kD form
